Measured values taken from PMC4178188, “RIG-I Self-Oligomerization Is Either Dispensable or Very Transient for Signal Transduction”.

How the values were obtained:
RIG-I (hRIG-I) [1] = biological target: T1, RIG-I (hRIG-I) (human, UniProt O95786 1-925); assay: SEC-MALLS; 2 mM ATP analogue; complex 113 kDa, 1:1; SEC-MALLS: 37 mM RIG-I, 40 mM RNA (units as printed), 2 mM ATP analogue, S200 column; buffer, salt, pH and temperature not in the material; conditions: protein: recombinant; double-stranded side products or secondary structure possible
T1 sequence: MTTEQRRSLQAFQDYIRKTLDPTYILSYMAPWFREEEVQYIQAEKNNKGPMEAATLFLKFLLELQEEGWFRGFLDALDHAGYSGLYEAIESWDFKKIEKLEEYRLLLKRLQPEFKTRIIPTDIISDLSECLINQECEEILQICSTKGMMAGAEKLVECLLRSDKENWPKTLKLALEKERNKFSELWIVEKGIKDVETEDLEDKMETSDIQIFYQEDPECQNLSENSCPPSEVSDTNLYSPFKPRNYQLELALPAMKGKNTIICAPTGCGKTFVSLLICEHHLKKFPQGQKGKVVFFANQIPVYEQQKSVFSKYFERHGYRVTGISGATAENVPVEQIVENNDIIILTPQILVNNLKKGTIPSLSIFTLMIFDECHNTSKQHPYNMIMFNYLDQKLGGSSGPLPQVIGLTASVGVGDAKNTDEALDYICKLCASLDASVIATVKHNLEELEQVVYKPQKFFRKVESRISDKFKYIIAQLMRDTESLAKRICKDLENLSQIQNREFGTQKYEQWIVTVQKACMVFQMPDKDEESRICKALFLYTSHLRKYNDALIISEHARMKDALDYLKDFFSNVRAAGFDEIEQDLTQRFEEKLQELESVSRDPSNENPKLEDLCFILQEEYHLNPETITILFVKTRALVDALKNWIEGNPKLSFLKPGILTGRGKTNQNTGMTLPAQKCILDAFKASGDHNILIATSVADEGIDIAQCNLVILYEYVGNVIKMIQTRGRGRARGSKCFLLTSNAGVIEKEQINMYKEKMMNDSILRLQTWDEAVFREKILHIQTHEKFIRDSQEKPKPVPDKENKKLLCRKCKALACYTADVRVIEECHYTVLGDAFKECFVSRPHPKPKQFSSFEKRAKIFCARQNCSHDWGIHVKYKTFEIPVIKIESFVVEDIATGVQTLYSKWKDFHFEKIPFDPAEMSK

RIG-I (hRIG-I) [2] = biological target: T1, RIG-I (hRIG-I); assay: SEC-MALLS; 2 mM ATP analogue; complex 110 kDa, 1:1; conditions: protein: recombinant; double-stranded side products or secondary structure possible

Row | Binder | binding result (RIG-I (hRIG-I) [1]) | binding result (RIG-I (hRIG-I) [2])
1 | Measles leader 5'ppp-RNA (MeV-L) (ssRNA, 5'-triphosphate) RNA: GGACCAAACAAAGUUGGGUAAGGAUAGAUCAAUCAAUGAUCAUAUUCUAGUACACUUGAAUUC | binds | 
2 | Rabies leader 5'ppp-RNA (RabV-L) (ssRNA, 5'-triphosphate) RNA: GGACGCUUAACAACAAAACCAGAGAAGAAAAAGACAGCGUCAAUUGCAAACGAAAAAUGUGC |  | binds
